Results from US20110152352, “SMAD PROTEINS CONTROL DROSHA-MEDIATED MIRNA MATURATION” (Tufts University, published 2011).

Assays:
[1] = target: Smad4 full length (UniProt Q13485 Q13485:1-552); experiment: pulldown; conditions: tags: GST fusion, E. coli
Method: (§1) In vitro GST-SMAD-RNA pull down assay: GST-smad fusion proteins were expressed in E. coli, isolated and bound to glutathione S-sepharose beads. Following partial purification, Smad bound beads were washed 4×5 min at 4° C. in wash buffer (10 mM Tris-HCl pH 7.6, 0.5M LiCl, 0.1% triton) and 1×10 at 4° C. in binding buffer (20 mM Tris-HCl pH 7.6, 0.1M KCl, 0.1% Tween-20, 0.1% Triton). Beads were resuspended in 100 ul binding buffer and pre-incubated with 25 ug tRNA, 1 ng poly-[dI-dC] and 2 μl RNAse inhibitor for 10 minutes before the addition of 10 pmoles synthesized mature miRNA or ˜20 pmoles in vitro transcribed 156 by pri-miR-21. Following 1 hr incubation with rocking at 4° C., beads were washed 4× with binding buffer. 2 consecutive elutions of bound RNA were performed by addition of 100 ul Elution buffer (1% SDS, 0.15M NaCl) followed by rocking at room temperature for 15 min. The eluates were combined, […] Trizol-LS (Invitrogen) was added and the RNA was purified as usual. RNA was re-suspended in 20 μl water and 1 μl was used in a reverse transcriptase reaction followed by quantitative real time PCR to detect relative levels of RNA binding to Smad-GST fusion proteins.

[2] = target: T1, Smad3 full length (UniProt P84022 P84022:1-425); experiment: pulldown; control duplex without CAGAC; conditions: tags: GST fusion, E. coli
T1 sequence (P84022 whole entry, the tested form may be a part, one chain of several): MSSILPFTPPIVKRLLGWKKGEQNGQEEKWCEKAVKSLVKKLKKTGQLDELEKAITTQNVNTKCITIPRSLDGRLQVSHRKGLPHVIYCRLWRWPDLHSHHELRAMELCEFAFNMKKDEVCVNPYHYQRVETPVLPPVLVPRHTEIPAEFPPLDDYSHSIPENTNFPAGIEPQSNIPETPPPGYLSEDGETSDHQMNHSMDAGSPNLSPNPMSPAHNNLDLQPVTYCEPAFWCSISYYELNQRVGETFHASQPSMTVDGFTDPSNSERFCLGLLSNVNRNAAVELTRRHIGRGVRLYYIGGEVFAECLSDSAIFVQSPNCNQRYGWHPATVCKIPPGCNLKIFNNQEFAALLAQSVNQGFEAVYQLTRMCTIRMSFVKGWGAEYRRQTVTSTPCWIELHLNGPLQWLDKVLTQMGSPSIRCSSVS
Method: as §1

[3] = target: T2, Smad1 full length (UniProt Q15797 Q15797:1-465); experiment: pulldown; control duplex without CAGAC; conditions: tags: GST fusion, E. coli
T2 sequence (Q15797 whole entry, the tested form may be a part, one chain of several): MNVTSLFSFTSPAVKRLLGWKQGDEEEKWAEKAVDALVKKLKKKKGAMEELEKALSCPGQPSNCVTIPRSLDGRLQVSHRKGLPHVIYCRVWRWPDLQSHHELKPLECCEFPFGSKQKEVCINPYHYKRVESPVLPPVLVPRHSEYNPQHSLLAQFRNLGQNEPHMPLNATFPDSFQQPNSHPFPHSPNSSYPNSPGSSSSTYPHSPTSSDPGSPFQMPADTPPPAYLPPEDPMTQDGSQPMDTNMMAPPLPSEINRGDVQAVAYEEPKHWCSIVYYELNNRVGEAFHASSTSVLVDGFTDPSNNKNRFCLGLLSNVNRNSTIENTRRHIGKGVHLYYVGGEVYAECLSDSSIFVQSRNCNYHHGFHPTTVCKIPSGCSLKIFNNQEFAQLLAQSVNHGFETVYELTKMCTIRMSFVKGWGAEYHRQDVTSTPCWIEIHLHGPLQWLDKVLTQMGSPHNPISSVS
Method: as §1

[4] = target: T3, Smad1 MH1 domain (UniProt Q15797 Q15797:1-219); experiment: pulldown; specific for miR-21 duplex; conditions: tags: GST fusion, E. coli
T3 sequence (Q15797 1-219, one chain of several): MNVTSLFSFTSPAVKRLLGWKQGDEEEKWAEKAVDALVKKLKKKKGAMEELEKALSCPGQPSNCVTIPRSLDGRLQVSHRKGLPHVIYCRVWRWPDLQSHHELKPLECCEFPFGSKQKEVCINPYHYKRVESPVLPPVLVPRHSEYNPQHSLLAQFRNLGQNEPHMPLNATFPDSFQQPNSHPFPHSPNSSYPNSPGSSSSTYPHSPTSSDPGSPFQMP
Method: as §1

[5] = target: Smad1 (UniProt Q15797 Q15797:1-465); experiment: RNA-ChIP; conditions: tags: Flag, Cos7; hairpin with flanks
Sequence of Smad1 (Q15797 whole entry, one chain of several): as the sequence (Q15797 whole entry, the tested form may be a part, one chain of several) above
Method: RNA-ChIP. Was performed as previously described [Fukuda, T. et al., Nat Cell Biol 9, 604-611 (2007)]. Briefly, PASMCs or Cos7 cells were crosslinked for 15 minutes with 1% formaldehyde, the cell pellet was resuspended in Buffer A (5 mM PIPES, pH 8.0, 85 mM KCl, 0.5% Nonidet P-40). After 10 min on ice, the crude nuclei fraction was isolated by centrifugation, and then suspended in Buffer B (1% SDS, 10 mM EDTA, 50 mM Tris-HCl, pH 8.1). After nuclei were disrupted by sonication, the lysates were cleared and subjected to immunoprecipitation with anti-Flag, anti-Smad1/5/8, Smad2/3, or p68 antibody, prior to stringent washing, and elution. The RNA was isolated using Trizol (invitrogen). Pellets were resuspended in 100 μl TE and incubated with DNase I (10 U) for 30 min at 37° C. to remove any remaining DNA. Following extraction with phenol:chloroform (5:1), RNA was precipitated with ethanol and dissolved in 20 μl of water. […] of RNA was used for a 20 μl cDNA synthesis reaction. Quantitative PCR reactions were then performed by real-time PCR machine (iQ5, Bio-Rad). Average of three experiments each performed in triplicate with standard errors are presented.

[6] = target: T3, Smad1 MH1 domain; experiment: pulldown; MH1 sufficient; conditions: tags: GST fusion, E. coli
Method: as §1

[7] = target: T2, Smad1 full length; experiment: pulldown; tRNA and poly dI-dC, 0.1 M KCl, 4 C; conditions: tags: GST fusion, E. coli
Method: as §1

[8] = target: T1, Smad3 full length; experiment: pulldown; conditions: tags: GST fusion, E. coli
Method: as §1

[9] = target: T3, Smad1 MH1 domain; experiment: pulldown; excess yeast tRNA; conditions: tags: GST fusion, E. coli
Method: (§2) To examine the interaction of SMAD proteins with double stranded CAGAC sequences of miRNA we performed RNA pull down experiments. Gst-Smad fusion proteins were expressed in E. coli and partially purified. As a proof of principal, we used mature miR-21 sequences (see below). ssRNA oligonucleotides were annealed to make dsRNA. GST-Pull down experiments were performed using the standard methods including aspects of those disclosed herein in the presence of excess amount of non-specific RNAa (yeast tRNAs). Full length GST-SMAD1 fusion protein and a GST-SMAD1 N-terminal (n219) MH1 domain interact with double stranded CAGAC sequences of miR-21
(§3) In vitro GST-SMAD-RNA pull down assay: GST-smad fusion proteins were expressed in E. coli, isolated and bound to glutathione S-sepharose beads. Following partial purification, Smad bound beads were washed 4×5 min at 4° C. in wash buffer (10 mM Tris-HCl pH 7.6, 0.5M LiCl, 0.1% triton) and 1×10 at 4° C. in binding buffer (20 mM Tris-HCl pH 7.6, 0.1M KCl, 0.1% Tween-20, 0.1% Triton). […] RNA was re-suspended in 20 μl water and 1 μl was used in a reverse transcriptase reaction followed by quantitative real time PCR to detect relative levels of RNA binding to Smad-GST fusion proteins.

[10] = target: T2, Smad1 full length; experiment: pulldown; excess yeast tRNA; conditions: tags: GST fusion, E. coli
Method: as §2, §3

Sequence of Smad4 full length (Q13485 whole entry, the tested form may be a part, one chain of several): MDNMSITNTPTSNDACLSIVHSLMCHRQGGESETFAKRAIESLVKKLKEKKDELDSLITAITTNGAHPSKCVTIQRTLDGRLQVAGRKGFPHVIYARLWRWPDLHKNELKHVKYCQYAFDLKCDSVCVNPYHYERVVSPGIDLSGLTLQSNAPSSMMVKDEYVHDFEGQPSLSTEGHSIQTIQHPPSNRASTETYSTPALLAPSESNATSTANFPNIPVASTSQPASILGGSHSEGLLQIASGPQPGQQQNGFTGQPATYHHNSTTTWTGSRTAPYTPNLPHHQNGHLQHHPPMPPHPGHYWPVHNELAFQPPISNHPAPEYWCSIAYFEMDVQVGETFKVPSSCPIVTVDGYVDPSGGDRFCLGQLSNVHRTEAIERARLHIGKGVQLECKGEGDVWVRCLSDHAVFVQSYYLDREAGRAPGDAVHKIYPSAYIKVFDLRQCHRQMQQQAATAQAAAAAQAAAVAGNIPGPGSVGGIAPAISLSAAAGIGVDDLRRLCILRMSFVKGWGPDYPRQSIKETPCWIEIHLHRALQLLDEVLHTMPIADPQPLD

B1: cel-miR-67 RNA duplex (dsRNA)
RNA 1: UCACAACCUCCUAGAAAGAGUAGA
RNA 2: UCUACUCUUUCUAGGAGGUUGUGA
binding result [1]: no binding | binding result [2]: no binding | binding result [3]: no binding | binding result [4]: no binding

B2: pri-miR-21 from pCMV-miR-21 (480 nt; hairpin sequence given) (ssRNA)
RNA: UGUCGGGUAGCUUAUCAGACUGAUGUUGACUGUUGAAUCUCAUGGCAACACCAGUCGAUGGGCUGUCUGACA
binding signal [5]: 3 fold induction by BMP4

B3: miR-21 RNA duplex (dsRNA)
RNA 1: UAGCUUAUCAGACUGAUGUUGA
RNA 2: UCAACAUCAGUCUGAUAAGCUA
binding result [6]: binds | binding result [7]: binds | binding result [1]: no binding | binding result [8]: binds

B4: miR-21 duplex (annealed oligos) (dsRNA)
RNA 1: UAGCUUAUCAGACUGAUGUUGA
RNA 2: UCAACAUCAGUCUGAUAAGCUA
binding result [9]: binds | binding result [10]: binds
